Measured values taken from publication PMC5903163.

Biological target: glucose-regulated protein 78 (GRP78) (Mesocricetus auratus (endogenous in BHK-21)) (UniProt P07823)
Sequence of UniProt P07823 (P07823 19-654): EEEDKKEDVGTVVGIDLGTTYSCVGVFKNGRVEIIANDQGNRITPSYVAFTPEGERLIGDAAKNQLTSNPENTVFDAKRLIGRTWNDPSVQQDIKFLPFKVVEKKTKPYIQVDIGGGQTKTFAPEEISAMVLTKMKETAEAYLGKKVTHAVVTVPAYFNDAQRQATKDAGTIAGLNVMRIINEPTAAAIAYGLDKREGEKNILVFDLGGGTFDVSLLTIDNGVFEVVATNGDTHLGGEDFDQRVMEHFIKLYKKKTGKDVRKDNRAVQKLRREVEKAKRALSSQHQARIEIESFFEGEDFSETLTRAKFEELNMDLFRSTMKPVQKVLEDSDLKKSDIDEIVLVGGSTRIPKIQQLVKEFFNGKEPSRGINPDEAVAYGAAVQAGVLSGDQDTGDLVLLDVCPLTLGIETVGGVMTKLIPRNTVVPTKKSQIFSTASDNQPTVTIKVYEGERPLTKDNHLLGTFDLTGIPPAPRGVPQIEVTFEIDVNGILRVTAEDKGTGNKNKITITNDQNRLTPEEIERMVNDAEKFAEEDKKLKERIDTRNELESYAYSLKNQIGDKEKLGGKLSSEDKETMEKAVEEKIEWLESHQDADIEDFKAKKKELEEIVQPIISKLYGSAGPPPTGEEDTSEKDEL

Tembusu virus (TMUV) JS804, whole virus particle (complex)
TMUV RNA (qRT-PCR, 24 h) in BHK-21 cells pre-incubated with 100 μg/ml anti-GRP78 N-terminal antibody (ab32618) before infection, against rabbit IgG treated cells: 50%
